Experimental findings from patent US20240165255A1 (FRED HUTCHINSON CANCER CENTER, published 2024) are described below.

The target in the experiment is folate receptor alpha (FOLR1) on MV4;11 FOLR1+ cells and on CBF/GLIS-transduced CB HSPCs (UniProt P15328 25-234, limits assumed). Kind of experiment: cell-based or functional assay.
Sequence of folate receptor alpha (FOLR1) on MV4;11 FOLR1+ cells and on CBF/GLIS-transduced CB HSPCs (P15328 25-234 limits assumed): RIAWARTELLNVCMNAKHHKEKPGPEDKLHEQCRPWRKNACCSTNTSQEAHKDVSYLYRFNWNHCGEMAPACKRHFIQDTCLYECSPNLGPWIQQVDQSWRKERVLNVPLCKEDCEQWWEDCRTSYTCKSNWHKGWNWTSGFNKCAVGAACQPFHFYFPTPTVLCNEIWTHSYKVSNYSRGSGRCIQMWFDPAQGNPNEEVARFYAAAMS

B1: FOLR1-directed site-specific antibody-drug Conjugate P (IgG antibody with VH region SEQ ID NO: 362 and VL region SEQ ID NO: 367, conjugate formula P, n=4) (antibody, V domains shown)
VH: EVQLVESGGGLVQPGGSLRLSCAASGFNIRTQSIHWVRQAPGKGLEWIGDIFPIDGITDYADSVKGRFTISADTSKNTAYLQMNSLRAEDTAVYYCARGSWSWPSGMDYYLDYWGQGTLVTVSS
VL: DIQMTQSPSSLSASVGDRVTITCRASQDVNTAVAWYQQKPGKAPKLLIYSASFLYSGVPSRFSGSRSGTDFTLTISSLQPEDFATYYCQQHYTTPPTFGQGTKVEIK
modifications: para-azidomethylphenylalanine residues substituting for Y180 and F404 of each VH region (so in the source); heavy chain positions), conjugated according to conjugate formula P, n=4 (hemiasterlin drug-linker)
With B1, the “in vitro cytotoxicity IC50 (printed as '1050s') against CBF/GLIS-transduced CB HPSCs (which upregulate FOLR1)” value is 4.2 nM and the “in vitro cytotoxicity IC50 (printed as '1050s') against MV4;11 AML cell line engineered to express FOLR1 (MV4;11 FOLR1+)” value came out at 0.1 nM.
